Settings in all cases: both partners purified
Test [1] concerns the target T1, SARS-CoV-2 Spike protein receptor binding domain (RBD) (Severe acute respiratory syndrome …, UniProt P0DTC2). The experiment in a line: ELISA.
Test [2] has as its target SARS-CoV-2 Spike protein S1 (SARS-CoV-2, Wuhan-Hu-1 (P0DTC2), UniProt P0DTC2). In words: BLI.
For test [3], the target named is SARS-CoV-2 Spike protein S2 (SARS-CoV-2, Wuhan-Hu-1 (P0DTC2), UniProt P0DTC2). The experiment in a line: BLI. Background: BLI is a label-free optical method that tracks binding on a fibre tip over time.
The target in test [4] is T1, SARS-CoV-2 Spike protein receptor …. In words: BLI.

We go through 5 molecules from publication PMC7319273 (Science (New York, N.y.), 2020).

A word on the Kd: it is a measure of binding affinity in units of concentration. The low end stands for a tighter complex, the high end for a looser complex.

B1: 4A8 (human monoclonal antibody) (antibody, V domains shown)
VH: EVQLVESGAEVKKPGASVKVSCKVSGYTLTELSMHWVRQAPGKGLEWMGGFDPEDGETMYAQKFQGRVTMTEDTSTDTAYMELSSLRSEDTAVYYCATSTAVAGTPDLFDYYYGMDVWGQGTTVTVSS
VL: EIVMTQSPLSSPVTLGQPASISCRSSQSLVHSDGNTYLSWLQQRPGQPPRLLIYKISNRFSGVPDRFSGSGAGTDFTLKISRVEAEDVGVYYCTQATQFPYTFGQGTKVDIK
On to B1, for which the binding result in test [1] is “no binding”. This molecule also gave a Kd in test [2] of 92.7 nM.

B2: 9A1 (human monoclonal antibody) (antibody, V domains shown)
VH: EVQLLESGGGVVQPGRSLRLSCVVSGFTFNNYGMHWVRQAPGKGLEWVAVISYEGSVKYYGDHVDGRFTISRDPFKNTLYLHMNNLRPDDTAVYYCAKVSAIFWLGQGLSPIDVWGQGTTVTVSS
VL: DIVMTQSPATLSASPGERVTLSCRASQNIRNNLAWYQQKPGQAPRLLIHGASTRAAGAPARFSGSGSDTQFTLTVSSLQSEDFAVYYCHQYSKWPVTFGGGTKVDIK
notes: also called mAb 9A1
Take B2: the Kd in test [3] was < 0.001 nM.

B3: 1M-1D2 (human monoclonal antibody) (antibody, V domains shown)
VH: QVQLVESGGGLVQPGGSLRLSCAASGFTFSSYAMHWVRQAPGKGLEYVSAISGNGGSTYYAKSVKGRFTISRDNSKNTLYLQMGSLRAEDMAVYYCARGAEYYDFWSGYYSAYFDYWGQGTLVTVSS
VL: QAVVTQPPSASGTPGQRVTISCSGSSSNIGSNYVYWYQQLPGTAPKLLIYNNNQRPSGVPDRFSGSKSGTSASLAISGLRSEDEADYYCAAWDDSLIYVLFGGGTKLTVL
In the case of B3, in test [2], the Kd was found to be 108 nM. In other words, the sub-micromolar range.

B4: 0304-3H3 (human monoclonal antibody) (antibody, V domains shown)
VH: EVQLVESGPGLVKPSETLSLTCTASGGSISTYYWSWIRQPPGKGLEWIGYIYYSGSTNYNPSLKSRVTISVDTSKNQFSLKLSSVTAADTAVYYCARDRIAPVGKFFGWYFDLWGRGTLVTVSS
VL: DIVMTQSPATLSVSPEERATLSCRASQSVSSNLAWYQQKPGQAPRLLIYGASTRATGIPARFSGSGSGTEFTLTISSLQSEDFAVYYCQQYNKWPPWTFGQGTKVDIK
notes: also called mAb 0304-3H3
With B4, the Kd in test [3] stood at 4.52 nM. That is a single-digit nanomolar value.

B5: 2M-10B11 (human monoclonal antibody) (antibody, V domains shown)
VH: EVQLVESGGGLVQPGGSLRLSCAASGFTVSSNYMSWVRQAPGKGLEWVSVIYSGGSTYYADSVKGRFTISRDNSKNTLYLQMNSLRAEDTAVYYCARATWLRGVMDVWGQGTTVTVSS
VL: QSALTQPHSVSESPGKTVTISCTGSSGSIASNYVQWYQQRPGSAPTTVIYEDNQRPSGVPDRFSGSIDSSSNSASLTISGLKTEDEADYYCQSYDSSNHWVFGGGTKLTVL
notes: ELISA group 2B; also called mAb 2M-10B11
In test [4], B5 had a Kd of 24.3 nM.
